Target: dopamine 2 receptor (D2R) with SmBiT tag (UniProt P14416)
Assay: split reporter (BiFC, NanoBiT); NanoBiT in cells: SmBiT on D2R, LgBiT on Gβ; stimulation with dopamine; Gαo-free control = 0% interaction, WT Gαo = 100% interaction

Chain of UniProt P14416 (P14416 whole entry): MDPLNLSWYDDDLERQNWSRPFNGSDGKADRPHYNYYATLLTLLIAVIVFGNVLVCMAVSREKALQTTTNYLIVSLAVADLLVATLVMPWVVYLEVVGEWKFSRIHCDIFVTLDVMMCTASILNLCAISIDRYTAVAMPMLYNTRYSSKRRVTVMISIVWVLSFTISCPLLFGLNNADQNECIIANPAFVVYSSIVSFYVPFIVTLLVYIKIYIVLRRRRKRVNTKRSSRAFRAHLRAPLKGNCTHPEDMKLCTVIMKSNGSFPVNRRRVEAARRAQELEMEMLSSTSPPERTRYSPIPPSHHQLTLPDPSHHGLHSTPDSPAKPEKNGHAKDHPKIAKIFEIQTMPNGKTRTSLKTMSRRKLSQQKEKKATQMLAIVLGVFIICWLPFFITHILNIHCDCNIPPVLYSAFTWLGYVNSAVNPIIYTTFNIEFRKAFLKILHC

## G protein heterotrimer of N76K Gαo with LgBiT-tagged Gβ and Gγ (from UniProt P09471 1-354; P62873 1-340; P59768 1-71) (complex)
  fold change of receptor-Gβγ interaction against WT Gαo: 4 fold

— paper PMC12682024
